Measurements as given in FireProtDB (doi:10.1021/bi050342n).

B1: Azurin, P00282 (parent)
chain: MLRKLAAVSLLSLLSAPLLAAECSVDIQGNDQMQFNTNAITVDKSCKQFTVNLSHPGNLPKNVMGHNWVLSTAADMQGVVTDGMASGLDKDYLKPDDSRVIAHTKLIGSGEKDSVTFDVSKLKEGEQYMFFCTFPGHSALMKGTLTLK

Variants of: B1
Conditions: Pseudomonas aeruginosa (strain ATCC 15692 / DSM 22644 / CIP 104116 / JCM 14847 / LMG 12228 / 1C / PRS 101 / PAO1); pH 7; 25 °C; GdnHCl; Fluorescence, CD; Tris-HCl 100 mM; reversible: Yes; structure 5AZU; whole UniProt chain shown

Variant	ddG of mutation (higher = less stable)	denaturant m value	unfolding free energy
MLRKLAAVSLLSLLSAPLLAAECSVDIQGNDQMQFNTNAITVDKSCKQFTVNLSHPGNLPKNVMGHNAVLSTAADMQGVVTDGMASGLDKDYLKPDDSRVIAHTKLIGSGEKDSVTFDVSKLKEGEQYMFFCTFPGHSALMKGTLTLK [W68A]	3.35 kcal/mol	4.78 kcal/mol/M	9.56 kcal/mol
MLRKLAAVSLLSLLSAPLLAAECSVDIQGNDQMQFNTNAATVDKSCKQFTVNLSHPGNLPKNVMGHNWVLSTAADMQGVVTDGMASGLDKDYLKPDDSRVIAHTKLIGSGEKDSVTFDVSKLKEGEQYMFFCTFPGHSALMKGTLTLK [I40A]	2.39 kcal/mol	4.54 kcal/mol/M	10.5 kcal/mol
MLRKLAAVSLLSLLSAPLLAAECSADIQGNDQMQFNTNAITVDKSCKQFTVNLSHPGNLPKNVMGHNWVLSTAADMQGVVTDGMASGLDKDYLKPDDSRVIAHTKLIGSGEKDSVTFDVSKLKEGEQYMFFCTFPGHSALMKGTLTLK [V25A]	0.96 kcal/mol	4.06 kcal/mol/M	11.9 kcal/mol
MLRKLAAVSLLSLLSAPLLAAECSVDIQGNDQMQFNTNAITVDKSCKQFTVNLSHPGNLPKNVMGHNWVLSTAADMQGVGTDGMASGLDKDYLKPDDSRVIAHTKLIGSGEKDSVTFDVSKLKEGEQYMFFCTFPGHSALMKGTLTLK [V80G]	3.11 kcal/mol	4.18 kcal/mol/M	9.8 kcal/mol
MLRKLAAVSLLSLLSAPLLAAECSVDIQGNDQMQFNTNAITVDKSCKQFTVNLSHPGNLPKNVMGHNWVASTAADMQGVVTDGMASGLDKDYLKPDDSRVIAHTKLIGSGEKDSVTFDVSKLKEGEQYMFFCTFPGHSALMKGTLTLK [L70A]	1.79 kcal/mol	4.42 kcal/mol/M	11.1 kcal/mol
MLRKLAAVSLLSLLSAPLLAAECSVDIQGNDQMQFNTNAITVDKSCKQFTANLSHPGNLPKNVMGHNWVLSTAADMQGVVTDGMASGLDKDYLKPDDSRVIAHTKLIGSGEKDSVTFDVSKLKEGEQYMFFCTFPGHSALMKGTLTLK [V51A]	1.67 kcal/mol	4.54 kcal/mol/M	11.2 kcal/mol
MLRKLAAVSLLSLLSAPLLAAECSVDIQGNDQMQFNTNAITVDKSCKQFTVNLSHPGNLPKNVMGHNWVLSTAADMQGVVTDGMASGLDKDYLKPDDSRVIAHTKLIGSGEKDSVTFDVSKLKEGEQAMFFCTFPGHSALMKGTLTLK [Y128A]	3.59 kcal/mol	4.42 kcal/mol/M	9.32 kcal/mol
MLRKLAAVSLLSLLSAPLLAAECSVDAQGNDQMQFNTNAITVDKSCKQFTVNLSHPGNLPKNVMGHNWVLSTAADMQGVVTDGMASGLDKDYLKPDDSRVIAHTKLIGSGEKDSVTFDVSKLKEGEQYMFFCTFPGHSALMKGTLTLK [I27A]	3.35 kcal/mol	4.3 kcal/mol/M	9.56 kcal/mol
MLRKLAAVSLLSLLSAPLLAAECSVDIQGNDQMQFNTNAITVDKSCKQFTVNLSHPGNLPKNVMGHNWVLSTAADMQGVVTDGMASGLDKDYLKPDDSRVIAHTKLIGSGEKDSVTFDVSKLKEGEQYMFFCTFPGHSALMKGTATLK [L145A]	1.67 kcal/mol	4.54 kcal/mol/M	11.2 kcal/mol
MLRKLAAVSLLSLLSAPLLAAECSVDIQGNDQMQFNTNAITVDKSCKQFTVNASHPGNLPKNVMGHNWVLSTAADMQGVVTDGMASGLDKDYLKPDDSRVIAHTKLIGSGEKDSVTFDVSKLKEGEQYMFFCTFPGHSALMKGTLTLK [L53A]	1.67 kcal/mol	4.78 kcal/mol/M	11.2 kcal/mol
MLRKLAAVSLLSLLSAPLLAAECSVDIQGNDQMQFNTNAITVDKSCKQFTVNLSHPGNLPKNVMGHNWVLSTAADMQGVVTDGMASGLDKDYLKPDDSRVIAHTKLIGSGEKDSATFDVSKLKEGEQYMFFCTFPGHSALMKGTLTLK [V115A]	0.96 kcal/mol	4.3 kcal/mol/M	11.9 kcal/mol
MLRKLAAVSLLSLLSAPLLAAECSVDIQGNDQMQFNTNAITVDKSCKQFTVNLSHPGNLPKNVMGHNWVLSTAADMQGVVTDGMASGLDKDYLKPDDSRVIGHTKLIGSGEKDSVTFDVSKLKEGEQYMFFCTFPGHSALMKGTLTLK [A102G]	1.67 kcal/mol	4.3 kcal/mol/M	11.2 kcal/mol
MLRKLAAVSLLSLLSAPLLAAECSVDIQGNDQMQFNTNAITVDKSCKQFTVNLSHPGNLPKNVMGHNWVLSTAADMQGVVTDGMASGLDKDYLKPDDSRVAAHTKLIGSGEKDSVTFDVSKLKEGEQYMFFCTFPGHSALMKGTLTLK [I101A]	1.43 kcal/mol	4.78 kcal/mol/M	11.5 kcal/mol
MLRKLAAVSLLSLLSAPLLAAECSVDIQGNDQMQFNTNAITADKSCKQFTVNLSHPGNLPKNVMGHNWVLSTAADMQGVVTDGMASGLDKDYLKPDDSRVIAHTKLIGSGEKDSVTFDVSKLKEGEQYMFFCTFPGHSALMKGTLTLK [V42A]	1.67 kcal/mol	4.54 kcal/mol/M	11.2 kcal/mol
MLRKLAAVSLLSLLSAPLLAAECSVDIQGNDQMQFNTNAITVDKSCKQFTVNLSHPGNLPKNVMGHNWVLSTAADMQGVVTDGMASGLDKDYLKPDDSRVIAHTKLIGSGEKDSVTFDVSKLKEGEQYMFFCTFPGHSALAKGTLTLK [M141A]	2.87 kcal/mol	4.18 kcal/mol/M	10 kcal/mol
